Substrate: CNCC(=O)O
Assay: purified protein, by the assay type
Conditions: other: 37° C., pH 8.0

B1: sarcosine oxidase (E.C.1.5.3.1) from Streptomyces sp. KB210-8SY (Streptomyces sp. KB210-8SY) (protein)
chain: SPTYDVIVIGLGGMGSAAAHHLSARGARVLGLEKFGPVHNRGSSHGGSRITRQSYFEDPAYVPLLLRAYELYEELERATGRNVATLCGGVMAGPPDSRTVSGSLRSATEWDLAHEMLDAKEIRRRFPTLAPDDDEVALFEAKAGLLRPENMVAAHLQLATRQGAELRFEEPVLRWEPYRDGVRVHTGENTYTAGQLVICPGAWAPQLLADIGVPITVERQIMYWFQPKGGTGPFVPERHPVYIWEDADGVQVYGFPAIDGPEKGAKVAFFRKGQHTTPETIDRTVHAHEVRAMADHMSALIPDLPGTFLKAATCMYSNTPDEHFVIARHPAHPESVTVACGFSGHGFKFVPVVGEILADLALTGATAHPIGLFDPARLTAPAARGVQP
Question: B1 was tested. Which Km did it give?
Answer: The Km was 910 µM.
